Assays:
Assay in all cases: ELISA-like plate assay, captured BMP-7 from conditioned media, receptor-Fc detection
[1] = target: T1, ActRIIa receptor-Fc fusion (UniProt P27037 20-134, limits assumed)
T1 construct: BMP receptor-Fc fusion used at 5 ug/mL

[2] = target: T2, BMPRII receptor-Fc fusion (UniProt Q13873 27-151, limits assumed)
T2 construct: BMP receptor-Fc fusion used at 5 ug/mL
T2 sequence (looked up): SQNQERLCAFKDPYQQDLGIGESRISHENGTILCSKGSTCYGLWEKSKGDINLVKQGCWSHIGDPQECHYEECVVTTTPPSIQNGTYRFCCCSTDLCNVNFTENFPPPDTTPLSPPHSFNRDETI

[3] = target: T3, BMPRIa receptor-Fc fusion (UniProt P36894 24-152, limits assumed)
T3 construct: also called ALK-3

[4] = target: T4, BMPRIb receptor-Fc fusion (UniProt O00238 14-126)
T4 construct: BMP receptor-Fc fusion used at 5 ug/mL; also called ALK-6
T4 sequence (looked up): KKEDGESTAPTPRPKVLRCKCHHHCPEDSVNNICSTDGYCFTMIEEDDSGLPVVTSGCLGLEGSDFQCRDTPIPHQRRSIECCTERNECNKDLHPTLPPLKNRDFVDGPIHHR

T1 sequence (P27037 20-134 limits assumed): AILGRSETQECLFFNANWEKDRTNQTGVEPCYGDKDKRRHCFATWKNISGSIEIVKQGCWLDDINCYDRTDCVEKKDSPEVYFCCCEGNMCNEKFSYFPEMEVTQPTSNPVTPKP
T3 sequence (P36894 24-152 limits assumed): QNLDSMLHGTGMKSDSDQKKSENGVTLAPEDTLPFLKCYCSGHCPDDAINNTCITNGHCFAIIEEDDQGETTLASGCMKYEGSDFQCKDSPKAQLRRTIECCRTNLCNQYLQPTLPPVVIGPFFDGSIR

Binder | ActRIIa binding (relative to wild type = 1.0) [1] | BMPRII binding (relative to wild type = 1.0) [2] | BMPRIa binding (relative to wild type = 1.0) [3] | BMPRIb binding (relative to wild type = 1.0) [4]
BMP-7 variant F73Q (ligand, In conditioned media; numbering on mature BMP-7) STGGKQRSQNRSKTPKNQEALRMASVAENSSSDQRQACKKHELYVSFRDLGWQDWIIAPEGYAAYYCEGECAQPLNSYMNATNHAIVQTLVHFINPETVPKPCCAPTQLNAISVLYFDDSSNVILKKYRNMVVRACGCH | 1.87 relative to wild type | 2.85 relative to wild type | 1.05 relative to wild type | 1.71 relative to wild type
BMP-7 variant I57L (ligand, In conditioned media; numbering on mature BMP-7) STGGKQRSQNRSKTPKNQEALRMASVAENSSSDQRQACKKHELYVSFRDLGWQDWILAPEGYAAYYCEGECAFPLNSYMNATNHAIVQTLVHFINPETVPKPCCAPTQLNAISVLYFDDSSNVILKKYRNMVVRACGCH | 0.9 relative to wild type | 0.4 relative to wild type | 0.92 relative to wild type | 1.17 relative to wild type
BMP-7 variant K39A (ligand, In conditioned media; numbering on mature BMP-7) STGGKQRSQNRSKTPKNQEALRMASVAENSSSDQRQACAKHELYVSFRDLGWQDWIIAPEGYAAYYCEGECAFPLNSYMNATNHAIVQTLVHFINPETVPKPCCAPTQLNAISVLYFDDSSNVILKKYRNMVVRACGCH | 1.06 relative to wild type | 1.51 relative to wild type | 3.48 relative to wild type | 2.86 relative to wild type
BMP-7 variant K39S (ligand, In conditioned media; numbering on mature BMP-7) STGGKQRSQNRSKTPKNQEALRMASVAENSSSDQRQACSKHELYVSFRDLGWQDWIIAPEGYAAYYCEGECAFPLNSYMNATNHAIVQTLVHFINPETVPKPCCAPTQLNAISVLYFDDSSNVILKKYRNMVVRACGCH | 1.04 relative to wild type | 1.37 relative to wild type | 2.77 relative to wild type | 2.23 relative to wild type
BMP-7 variant I86D (ligand, In conditioned media; numbering on mature BMP-7) STGGKQRSQNRSKTPKNQEALRMASVAENSSSDQRQACKKHELYVSFRDLGWQDWIIAPEGYAAYYCEGECAFPLNSYMNATNHADVQTLVHFINPETVPKPCCAPTQLNAISVLYFDDSSNVILKKYRNMVVRACGCH | 1.09 relative to wild type | 1.31 relative to wild type | 1.03 relative to wild type | 1.18 relative to wild type
BMP-7 variant F93H (ligand, In conditioned media; numbering on mature BMP-7) STGGKQRSQNRSKTPKNQEALRMASVAENSSSDQRQACKKHELYVSFRDLGWQDWIIAPEGYAAYYCEGECAFPLNSYMNATNHAIVQTLVHHINPETVPKPCCAPTQLNAISVLYFDDSSNVILKKYRNMVVRACGCH | 0.98 relative to wild type | 1.2 relative to wild type | 1.03 relative to wild type | 1.04 relative to wild type
BMP-7 variant K126E (ligand, In conditioned media; numbering on mature BMP-7) STGGKQRSQNRSKTPKNQEALRMASVAENSSSDQRQACKKHELYVSFRDLGWQDWIIAPEGYAAYYCEGECAFPLNSYMNATNHAIVQTLVHFINPETVPKPCCAPTQLNAISVLYFDDSSNVILEKYRNMVVRACGCH | 0.26 relative to wild type | 0 relative to wild type | 0.23 relative to wild type | 0.22 relative to wild type
BMP-7 variant F117R (ligand, In conditioned media; numbering on mature BMP-7) STGGKQRSQNRSKTPKNQEALRMASVAENSSSDQRQACKKHELYVSFRDLGWQDWIIAPEGYAAYYCEGECAFPLNSYMNATNHAIVQTLVHFINPETVPKPCCAPTQLNAISVLYRDDSSNVILKKYRNMVVRACGCH | 0.35 relative to wild type | 0.72 relative to wild type | 0.47 relative to wild type | 0.71 relative to wild type
BMP-7 variant K39N (ligand, In conditioned media; numbering on mature BMP-7) STGGKQRSQNRSKTPKNQEALRMASVAENSSSDQRQACNKHELYVSFRDLGWQDWIIAPEGYAAYYCEGECAFPLNSYMNATNHAIVQTLVHFINPETVPKPCCAPTQLNAISVLYFDDSSNVILKKYRNMVVRACGCH | 1.08 relative to wild type | 0.99 relative to wild type | 1.98 relative to wild type | 1.63 relative to wild type
BMP-7 variant F93T (ligand, In conditioned media; numbering on mature BMP-7) STGGKQRSQNRSKTPKNQEALRMASVAENSSSDQRQACKKHELYVSFRDLGWQDWIIAPEGYAAYYCEGECAFPLNSYMNATNHAIVQTLVHTINPETVPKPCCAPTQLNAISVLYFDDSSNVILKKYRNMVVRACGCH | 0.79 relative to wild type | 0.81 relative to wild type | 0.77 relative to wild type | 0.88 relative to wild type
